Measured values from patent US20110059082A1 (BIOTEST, published 2011).

B1: humanized B-F5 H37L/L4L (antibody, V domains shown)
VH: EEQLVESGGGLVKPGGSLRLSCAASGFSFSDCRMYWLRQAPGKGLEWIGVISVKSENYGANYAESVRGRFTISRDDSKNTVYLQMNSLKTEDTAVYYCSASYYRYDVGAWFAYWGQGTLVTVSS
VL: DIVLTQSPDSLAVSLGERATINCRASKSVSTSGYSYIYWYQQKPGQPPKLLIYLASILESGVPDRFSGSGSGTDFTLTISSLQAEDVAVYYCQHSRELPWTFGQGTKVEIK
notes: expressed in Sp2/0, purified on protein A; also called H37L/L4L IgG1; hB-F5
B2: humanized B-F5 H37L/L4M IgG1 (BT061) (antibody, V domains shown)
VH: EEQLVESGGGLVKPGGSLRLSCAASGFSFSDCRMYWLRQAPGKGLEWIGVISVKSENYGANYAESVRGRFTISRDDSKNTVYLQMNSLKTEDTAVYYCSASYYRYDVGAWFAYWGQGTLVTVSS
VL: DIVMTQSPDSLAVSLGERATINCRASKSVSTSGYSYIYWYQQKPGQPPKLLIYLASILESGVPDRFSGSGSGTDFTLTISSLQAEDVAVYYCQHSRELPWTFGQGTKVEIK
notes: also called hB-F5; humanised B-F5
B3: humanized B-F5 H37V/L4L (antibody, V domains shown)
VH: EEQLVESGGGLVKPGGSLRLSCAASGFSFSDCRMYWVRQAPGKGLEWIGVISVKSENYGANYAESVRGRFTISRDDSKNTVYLQMNSLKTEDTAVYYCSASYYRYDVGAWFAYWGQGTLVTVSS
VL: DIVLTQSPDSLAVSLGERATINCRASKSVSTSGYSYIYWYQQKPGQPPKLLIYLASILESGVPDRFSGSGSGTDFTLTISSLQAEDVAVYYCQHSRELPWTFGQGTKVEIK
notes: also called hB-F5
B4: humanized B-F5 H37V/L4M (antibody, V domains shown)
VH: EEQLVESGGGLVKPGGSLRLSCAASGFSFSDCRMYWVRQAPGKGLEWIGVISVKSENYGANYAESVRGRFTISRDDSKNTVYLQMNSLKTEDTAVYYCSASYYRYDVGAWFAYWGQGTLVTVSS
VL: DIVMTQSPDSLAVSLGERATINCRASKSVSTSGYSYIYWYQQKPGQPPKLLIYLASILESGVPDRFSGSGSGTDFTLTISSLQAEDVAVYYCQHSRELPWTFGQGTKVEIK
notes: also called hB-F5

Target: T1, soluble CD4 (human, UniProt P01730 26-396, limits assumed)
T1 construct: The assay paragraph says only 'soluble CD4'
Test: competitive ELISA, inhibition of biotinylated mB-F5 binding to coated soluble CD4, 37 °C 2 hours
Method: Culture supernatants of transfectomas producing the four versions of hB-F5 were collected, and concentrated. The different antibodies were purified from culture supernatants by affinity chromatography using protein A Sepharose and assessed for their CD4 binding activity by measuring, by means of competitive ELISA, their inhibitory activities against the binding of biotinylated mB-F5 to soluble CD4 coated on microtiter plates. Incubation, time is 2 hours for 37° C. and overnight for 4° C.

Q: B1 was tested. Which “Relative binding activity (% of mB-F5)” value did it give?
A: 30 % of mB-F5

Q: Which “Relative binding activity (% of mB-F5)” value does the source give for B2 here?
A: 30 % of mB-F5

Q: How did the “Relative binding activity (% of mB-F5)” value turn out when B3 was run?
A: 10 % of mB-F5

Q: Which “Relative binding activity (% of mB-F5)” value does the source give for B4 here?
A: 10 % of mB-F5
